Settings in all cases: tags: N-term SV40 NLS, C-term NP NLS
For data set [1], the target named is T1, xCas12i (SiCas12i, Cas12i12) (unidentified).
T1 chain: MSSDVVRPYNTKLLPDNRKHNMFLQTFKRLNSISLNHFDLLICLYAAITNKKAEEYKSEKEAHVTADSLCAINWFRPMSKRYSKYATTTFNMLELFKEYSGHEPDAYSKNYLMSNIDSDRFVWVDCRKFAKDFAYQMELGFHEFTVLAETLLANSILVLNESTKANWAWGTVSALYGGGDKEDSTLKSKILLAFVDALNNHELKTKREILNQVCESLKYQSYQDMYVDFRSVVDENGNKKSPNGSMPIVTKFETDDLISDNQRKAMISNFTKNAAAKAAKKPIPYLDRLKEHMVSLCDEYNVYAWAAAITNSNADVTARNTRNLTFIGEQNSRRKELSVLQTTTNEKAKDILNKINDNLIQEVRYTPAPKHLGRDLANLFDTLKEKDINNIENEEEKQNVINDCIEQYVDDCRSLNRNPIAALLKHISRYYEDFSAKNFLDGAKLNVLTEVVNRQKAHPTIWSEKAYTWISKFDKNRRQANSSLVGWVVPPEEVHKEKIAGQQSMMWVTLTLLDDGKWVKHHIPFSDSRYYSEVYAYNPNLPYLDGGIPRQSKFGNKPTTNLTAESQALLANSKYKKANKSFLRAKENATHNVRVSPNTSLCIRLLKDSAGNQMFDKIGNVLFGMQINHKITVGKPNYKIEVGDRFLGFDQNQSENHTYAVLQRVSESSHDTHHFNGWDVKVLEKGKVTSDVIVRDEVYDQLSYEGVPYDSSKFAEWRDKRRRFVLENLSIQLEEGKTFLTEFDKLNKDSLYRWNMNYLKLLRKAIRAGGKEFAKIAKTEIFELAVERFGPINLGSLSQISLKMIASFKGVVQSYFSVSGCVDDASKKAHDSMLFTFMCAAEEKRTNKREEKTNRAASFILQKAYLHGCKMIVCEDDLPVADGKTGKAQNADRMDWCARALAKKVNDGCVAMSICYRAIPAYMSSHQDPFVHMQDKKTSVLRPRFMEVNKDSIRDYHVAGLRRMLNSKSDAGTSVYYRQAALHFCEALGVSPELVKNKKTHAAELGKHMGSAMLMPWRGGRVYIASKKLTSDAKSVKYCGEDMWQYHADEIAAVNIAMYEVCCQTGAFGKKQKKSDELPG
Kind of data set: cell_activity; 5' TTN PAM; EGFP reporter HEK293T; DR-T1. An excerpt:
To vary xCas12i's dsDNA cleavage activity and expand its scope of PAM site recognition, the applicant engineered xCas12i protein via mutagenesis and screened for mutants with higher dsDNA cleavage activity and broader PAM using a dual plasmid fluorescent reporter system similar to the dual plasmid fluorescent reporter system in Example 1, except that the EGxxxxFP-targeting guide RNA (SEQ ID NO: 51; “crON”) coding sequence operably linked to U6 promoter was not located on the expression plasmid together with the xCas12i (or its mutant) coding sequence (SEQ ID NO: 31) but located on the reporter plasmid together with the BFP-P2A-EGxxxxFP coding sequence (SEQ ID NO: 41) (referring to “On-Target Reporter” in FIG. 1B). […] The applicant then individually transfected the expression plasmid and the reporter plasmid into HEK293T cells and analyzed them by FACS (FIG. 1B). […]

For another data set, the target named is T2, xCas12i-A165R (synthetic construct, A165R).
T2 chain: T1 chain with A165R
Kind of data set: cell_activity; 5' TTN PAM; EGFP reporter HEK293T.

Data set [2] deals with T3, Cas12Max (xCas12i-N243R, v1.1) (synthetic construct).
T3 chain: T1 chain with N243R
As to the kind of experiment: cell_activity; 5' TTN PAM; EGFP reporter HEK293T.

Changes are numbered by the printed parent chain.

These results are taken from US20250101394, “NOVEL CRISPR-CAS12I SYSTEMS AND USES THEREOF” (Huidagene Therapeutics (Singapore) PTE. LTD., published 2025).

B1: crEGFP guide with DR-T1 ; EGxxxxFP insertion target (ssRNA ; dsDNA)
RNA: AUGACUCAGAAAUGUGUCCCCAGUUGACACCCAUUACAGUAGGAGCAUAC
DNA 1: GGATCCGTGTCTTTCCCATTACAGTAGGAGCATACGGGAGACAAGCTTTG
DNA 2: CAAAGCTTGTCTCCCGTATGCTCCTACTGTAATGGGAAAGACACGGATCC
As to B1, the binding signal in data set [1] was 1 fold of WT; in the data set with xCas12i-A165R, 3.15 fold of WT; in data set [2] it was 3.61 fold of WT.
